From patent publication US20150086555A1

How the values were obtained:
Details in all cases: remark: other sources report otherwise
[1] = target: T1, recombinant soluble homotrimeric HA of A/northern shoveler/California/HKWF115/07 (H6) (Influenza A virus A/northern shoveler/California/HKWF115/2007(H6N1)); test: trimeric HA microarray, transfection supernatant set 3
[2] = target: T2, recombinant soluble homotrimeric HA of A/duck/Yangzhou/02/05 (H8N4) (Influenza A virus A/duck/Yangzhou/02/2005(H8N4)); test: as above
[3] = target: T3, recombinant soluble homotrimeric HA of A/Hong Kong/1073/99 (H9N2) (Influenza A virus A/Hong Kong/1073/99 (H9N2)); test: as above
[4] = target: T4, recombinant soluble homotrimeric HA of A/Wisconsin/67/05 (H3N2) (Influenza A virus A/Wisconsin/67/2005(H3N2)); test: as above
[5] = target: T5, recombinant soluble homotrimeric HA of A/swine/Ontario/01911-2/99 (H4N6) (Influenza A virus A/Swine/Ontario/01911-2/99 (H4N6)); test: as above
[6] = target: T6, recombinant soluble homotrimeric HA of A/Hong Kong/2108/03 (H9N2) (Influenza A virus A/HK/2108/2003(H9N2)); test: trimeric HA microarray, transfection supernatant set 4
[7] = target: T1, recombinant soluble homotrimeric HA of …; test: trimeric HA microarray, transfection supernatant set 2
[8] = target: T6, recombinant soluble homotrimeric HA of …; test: as above
[9] = target: T2, recombinant soluble homotrimeric HA of …; test: as above
[10] = target: T3, recombinant soluble homotrimeric HA of …; test: as above
[11] = target: T4, recombinant soluble homotrimeric HA of …; test: as above
[12] = target: T5, recombinant soluble homotrimeric HA of …; test: as above

B1: TCN-530 (5248_H10a) (antibody, V domains shown)
VH: QVQLVQSGAEVRKPGSSVKVSCKASGGPFMSYAIGWVRQAPGQGLEWMGGINPVFGRPHYAQKFQGRVTIATDDSTKTSYMELSSLTSEDTGMYYCASRYSRSSPGTFESWGQGTLVTVSS
VL: EIVMTQFPATLSVSPGERVTLSCRASQSVSNNLAWYQQKPGQPPRLLIYDASTRATGVPAKFSGTGSGTEFTLSISSLQSEDFAVYYCQQYHNWPPSYSFGLGTKLEIK
With B1 the Trimeric HA Binding: RLU [1] was 23500 RLU, the Trimeric HA Binding: RLU [2] was 227 RLU and the Trimeric HA Binding: RLU [3] was 10200 RLU. It also gave a Trimeric HA Binding: RLU [4] of 3050 RLU and a Trimeric HA Binding: RLU [5] of 123 RLU.

B2: TCN-534 (5249_B02) (antibody, V domains shown)
VH: QVQLVQSGAEVKKPGSSVKVSCRESGGTFNGYTITWVRQAPGQGLEWMGGIIPMMGTVNYAQKLQGRVTITTDYFTKTAYMDLNNLRSEDTAMYYCVKIRYTGQQLLWGQGTLVTVSS
VL: DIQMTQSPSTLSASIGDRVTITCRASQSIASWLAWYQQKPGKAPKLLIYEAVNLESGVPSRFSGSGSGTDFTLTISSLQPDDFATYFCQHYGTISQTFGGGTKVEIK
Work on B2 yielded a Trimeric HA Binding: RLU [6] of 27 RLU.

B3: TCN-563 (5237_B21) (antibody, V domains shown)
VH: QVQLAQSGAEVKRPGSSVKVSCTASGGIFRKNAISWVRQAPGQGLEWMGGIIAVFNTANYAQKFQGRVKITADESGNTAYMELSSLRSDDTAVYYCASHPKYFYGSGSYPDFWGQGTLVTVSS
VL: QSALTQPRSVSGSPGQSVTISCTGSSSDVGASNSVSWYQQHPGKAPKLVIYDVTERPSGVPHRFSGSKSGNTASLTVSGLQPEDEADYFCCAYGGKYLVVFGGGTKVTVL
B3 gave a Trimeric HA Binding: RLU [7] of 21900 RLU, a Trimeric HA Binding: RLU [8] of 364 RLU and a Trimeric HA Binding: RLU [9] of 6280 RLU. It also gave a Trimeric HA Binding: RLU [10] of 49200 RLU, a Trimeric HA Binding: RLU [11] of 23700 RLU and a Trimeric HA Binding: RLU [12] of 2250 RLU.

B4: TCN-523 (5248_A17) (antibody, V domains shown)
VH: QVQLVQSGAEVKKPGSSVKVSCKASGGSFSNYAFSWVRQAPGQGLEWMGGTIPLLGTTNYAQKFQGRVTISADQFTSTAYMELGSLRSEDTAVYYCTRRKMTTAFDSWGQGTLVTVSS
VL: QPVLTQPPSASASLGASVTLTCTLSSAYSNYKVDWYQQRPGKGPRFVMRVGTGGIVGSKGDGIPDRFSVLGSGLNRYLTIKNIQEEDESDYHCGADHGSGSNFVSPYVFGGGTKLTVL
B4 gave a Trimeric HA Binding: RLU [6] of 38 RLU, a Trimeric HA Binding: RLU [7] of 21200 RLU and a Trimeric HA Binding: RLU [8] of 18 RLU. The Trimeric HA Binding: RLU [10] was 31300 RLU, the Trimeric HA Binding: RLU [1] was 29400 RLU and the Trimeric HA Binding: RLU [3] was 24200 RLU.

B5: TCN-522 (3212_I12) (antibody, V domains shown)
VH: QVQLQQWGAGLLKPSETLSLTCTVSGGSLTDYSWNWIRQPPGKGLEWIGDTLHNGYTNYNPSLRGRVSISIDTSKNQVSLRLTSVTAADTALYYCARGSGGYGGFDYFGKLRTWDFWGQGTLVTVSS
VL: DIQLTQSPSSLSASVGDRVTITCRASQGIRNDLGWYQQKPGNAPKRLIFGASSLQSGVPSRFSGSGSGTEFTLTISSLQPEDFATYYCLQHNSYPYTFGQGTKLEIK
B5 was tested, and the Trimeric HA Binding: RLU [7] was 54400 RLU, the Trimeric HA Binding: RLU [8] was 203 RLU and the Trimeric HA Binding: RLU [9] was 1650 RLU. It also gave a Trimeric HA Binding: RLU [10] of 11800 RLU.
